Measurements from patent US5889151A (priority 1989, dated 1999).

B1: Human gamma IFN: human gamma interferon, recognized by a different receptor (protein, UniProt P01579 24-161, looked up)
Interferon gamma: QDPYVKEAENLKKYFNAGHSDVADNGTLFLGILKNWKEESDRKIMQSQIVSFYFKLFKNFKDDQSIQKSVETIKEDMNVKFFNSNKKKRDDFEKLTNYSVTDLNVQRKAIHELIQVMAELSPAAKTGKRKRSQMLFRG

Assays:
[1] = tested on: rhinoviruses; conditions: clinical trials; cited from earlier work
[2] = tested on: coronavirus; conditions: infected with a coronavirus; 37% with placebo; cited from earlier work
[3] = tested on: human Wish cells; type: cell-based
[4] = tested on: transfected 10B H7 clone; type: cell-based, mouse
[5] = tested on: mouse parental BTG cells; type: cell-based

Molecule | protection of volunteers infected with different rhinoviruses [1] | volunteers developing the symptoms of a cold [2] | Antiviral activities of interferon preparations tested on WISH [3] | Antiviral activities of interferon preparations tested on 10BH7 [4] | antiviral activity (in words) [4] | Antiviral activities of interferon preparations tested on BTG [5] | antiviral activity (in words) [5]
alpha interferon | 100% | 6% |  |  |  |  | 
B1 |  |  | 20 × 10^6 units/ml | < 1 × 10^3 units/ml | no antiviral activity | < 1 × 10^3 units/ml | no antiviral activity
